Source: patent US20220403048A1 (CANCER RESEARCH TECHNOLOGY, published 2022)

T1: biotinylated recombinant human trimeric ARG2 enzyme (Avi-huARG2-His10) (human, UniProt P78540 23-354, biotinylated)
T1 construct: also called avi-Arg2-His10; bio-ARG2
T1 chain: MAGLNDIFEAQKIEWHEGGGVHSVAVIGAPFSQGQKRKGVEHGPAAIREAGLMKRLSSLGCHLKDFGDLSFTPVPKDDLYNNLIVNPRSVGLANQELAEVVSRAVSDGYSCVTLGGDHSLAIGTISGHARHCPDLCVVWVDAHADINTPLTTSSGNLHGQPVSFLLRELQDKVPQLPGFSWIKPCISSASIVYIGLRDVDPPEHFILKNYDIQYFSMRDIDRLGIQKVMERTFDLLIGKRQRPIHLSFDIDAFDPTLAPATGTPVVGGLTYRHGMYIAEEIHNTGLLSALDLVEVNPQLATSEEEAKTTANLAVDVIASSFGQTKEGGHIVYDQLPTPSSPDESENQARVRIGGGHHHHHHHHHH

T2: recombinant human trimeric ARG2 enzyme (construct not given) (human, UniProt P78540 23-354)
T2 sequence (looked up): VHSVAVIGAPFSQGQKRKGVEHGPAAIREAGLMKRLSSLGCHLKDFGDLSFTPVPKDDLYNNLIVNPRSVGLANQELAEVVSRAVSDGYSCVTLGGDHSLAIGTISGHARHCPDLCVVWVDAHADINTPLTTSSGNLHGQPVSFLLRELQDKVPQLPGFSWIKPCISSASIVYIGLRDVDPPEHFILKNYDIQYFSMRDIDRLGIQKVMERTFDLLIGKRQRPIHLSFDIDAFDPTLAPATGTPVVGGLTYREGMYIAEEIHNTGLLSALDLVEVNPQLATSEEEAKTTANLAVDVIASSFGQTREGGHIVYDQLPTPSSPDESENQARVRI


Tests used:
[1] = biological target: T1, biotinylated recombinant human trimeric …; experiment: HTRF epitope competition, scFv titrated, competitor C0020187 IgG, on biotinylated human trimeric ARG2
[2] = biological target: T2, recombinant human trimeric ARG2 enzyme …; experiment: cell-based or functional assay
[3] = biological target: T1, biotinylated recombinant human trimeric …; experiment: BLI (OctetRED), biotinylated ARG2 on streptavidin, Fab as analyte
Procedure: An Octet Kinetics Buffer (PBS containing 0.01% BSA and 0.002% Tween20) is typically used as the diluent buffer for the analyte samples and as the flow buffer during the dissociation phase. The experimental data is recorded over time as shift in interference pattern (nm) over time, which is directly proportional to the optical thickness at the biosensor tip, which in turn is an approximate measure of the mass of analyte bound. The proprietary Octet Data Analysis software package can then be used to process data and fit binding models to the data sets. Returned association (kₐ, M⁻¹ s⁻¹) and dissociation (kd, s⁻¹) rate constants allow calculation of dissociation (KD, M) affinity constants.
Typically, an analyte titration range of 1.8 to 120 nM was used.

Row | Binder | IC50 [1] | Trimeric human ARG2 EIA IC50 [2] | Kd [3] | koff [3] | kon [3]
1 | C0021017 scFv (scFv, V domains shown, scFv) VH: EVQLLESGGGLVQPGGSLRLSCAASGFTFYPEYELWVRQAPGKGLEWVSAISGSGGSTYYADSVKGRFTISRDNSKNTLYLQMNSLRAEDTAVYYCARLRADLGLYMDLWGRGTLVTVSS VL: QSVLTQPPSVSAAPGQKVTISCSGSSSNIGNHYVSWYQQLPGTAPKLLIYDNSERPSGIPDRFSGSKSGTSATLGITGLQTGDEADYYCGTWDSSLSALVFGGGTKLTVL | 122 nM | 226 nM |  |  | 
2 | C0021092 scFv (scFv, V domains shown, scFv) VH: EVQLLESGGGLVQPGGSLRLSCAASGFTFSRYAMSWVRQAPGKGLEWVSAHTHSPGSTYYADSVKGRFTISRDNSKNTLYLQMNSLRAEDTAVYYCARLRADLGLYMDLWGRGTLVTVSS VL: QSVLTQPPSVSAAPGQKVTISCSGSSSNIGNHYVSWYQQLPGTAPKLLIYNSVARPSGIPDRFSGSKSGTSATLGITGLQTGDEADYYCGTWDSSLSALVFGGGTKLTVL | 130 nM | 159 nM |  |  | 
3 | C0021032 scFv (scFv, V domains shown, scFv) VH: EVQLLESGGGLVQPGGSLRLSCAASGFTFSSYAMSWVRQAPGKGLEWVSAYGYGIGSTYYADSVKGRFTISRDNSKNTLYLQMNSLRAEDTAVYYCARLRADLGLYMDLWGRGTLVTVSS VL: QSVLTQPPSVSAAPGQKVTISCSGSSSNIGNHYVSWYQQLPGTAPKLLIYDNSERPSGIPDRFSGSKSGTSATLGITGLQTGDEADYYCGTWDSSLSALVFGGGTKLTVL | 67 nM | 211 nM |  |  | 
4 | C0021021 Fab (Fab, V domains shown, Human Fab) VH: EVQLLESGGGLVQPGGSLRLSCAASGFTFSSYAMSWVRQAPGKGLEWVSSILFSPGSTYYADSVKGRFTISRDNSKNTLYLQMNSLRAEDTAVYYCARLRADLGLYMDLWGRGTLVTVSS VL: QSVLTQPPSVSAAPGQKVTISCSGSSSNIGNHYVSWYQQLPGTAPKLLIYDNSERPSGIPDRFSGSKSGTSATLGITGLQTGDEADYYCGTWDSSLSALVFGGGTKLTVL |  |  | 4.24 nM | 0.002 s⁻¹ | 473000 M⁻¹ s⁻¹
5 | C0021021 scFv (scFv, V domains shown, scFv) VH: EVQLLESGGGLVQPGGSLRLSCAASGFTFSSYAMSWVRQAPGKGLEWVSSILFSPGSTYYADSVKGRFTISRDNSKNTLYLQMNSLRAEDTAVYYCARLRADLGLYMDLWGRGTLVTVSS VL: QSVLTQPPSVSAAPGQKVTISCSGSSSNIGNHYVSWYQQLPGTAPKLLIYDNSERPSGIPDRFSGSKSGTSATLGITGLQTGDEADYYCGTWDSSLSALVFGGGTKLTVL | 58.7 nM | 151 nM |  |  | 
6 | C0021089 scFv (scFv, V domains shown, scFv) VH: EVQLLESGGGLVQPGGSLRLSCAASGFTFPYEYWSWVRQAPGKGLEWVSAISGSGGSTYYADSVKGRFTISRDNSKNTLYLQMNSLRAQDTAVYYCARLRADLGLYMDLWGRGTLVTVSS VL: QSVLTQPPSVSAAPGQKVTISCSGSSSNIGNHYVSWYQQLPGTAPKLLIYDNSERPSGIPDRFSGSKSGTSATLGITGLQTGDEADYYCGTWDPTVSRLVFGGGTKLTVL | 133 nM | 71.5 nM |  |  | 
7 | C0021032 Fab (Fab, V domains shown, Human Fab) VH: EVQLLESGGGLVQPGGSLRLSCAASGFTFSSYAMSWVRQAPGKGLEWVSAYGYGIGSTYYADSVKGRFTISRDNSKNTLYLQMNSLRAEDTAVYYCARLRADLGLYMDLWGRGTLVTVSS VL: QSVLTQPPSVSAAPGQKVTISCSGSSSNIGNHYVSWYQQLPGTAPKLLIYDNSERPSGIPDRFSGSKSGTSATLGITGLQTGDEADYYCGTWDSSLSALVFGGGTKLTVL |  |  | 5.33 nM | 0.00228 s⁻¹ | 427000 M⁻¹ s⁻¹
8 | C0021061 scFv (scFv, V domains shown, scFv) VH: EVQLLESGGGLVQPGGSLRLSCAASGFTFSSYAMSWVRQAPGKGLEWVSAKPTDAGSTYYADSVKGRFTISRDNSKNTLYLQMNSLRAEDTAVYYCARLRADLGLYMDLWGRGTLVTVSS VL: QSVLTQPPSVSAAPGQKVTISCSGSSSNIGNHYVSWYQQLPGTAPKLLIYNTVYPKSGIPDRFSGSKSGTSATLGITGLQTGDEADYYCGTWDSSLSALVFGGGTKLTVL | 101 nM | 110 nM |  |  | 

Now from value to binder:

Row | IC50 [1] | Trimeric human ARG2 EIA IC50 [2] | Kd [3] | koff [3] | kon [3] | Binder
9 |  |  | 3.33 nM | 0.00108 s⁻¹ | 326000 M⁻¹ s⁻¹ | C0021141 Fab (Fab, V domains shown, Human Fab) VH: EVQLLESGGGLVQPGGSLRLSCAASGFTFYPDPQGWVRQAPGKGLEWVSAYGYGIGSTYYADSVKGRFTISRDNSKNTLYLQMNSLRAEDTAVYYCARLRADLGLYMDLWGRGTLVTVSS VL: QSVLTQPPSVSAAPGQEVTISCSGSSSNIDNHYVSWYQQLPGTAPKLLIYDNSERPSGIPDRFSGSKSGTSATLGITGLQTGDEADYYCGTWDSSLSALVFGGGTKLTVL
10 |  |  | 4.95 nM | 0.00146 s⁻¹ | 295000 M⁻¹ s⁻¹ | C0021097 Fab (Fab, V domains shown, Human Fab) VH: EVQLLESGGGLVQPGGSLRLSCAASGFTFSSYAMSWVRQAPGKGLEWVSAISYHPGSTYYADSVKGRFTISRDNSKNTLYLQMNSLRAEDTAVYYCARLRADLGLYMDLWGRGTLVTVSS VL: QSVLTQPPSVSAAPGQKVTISCSGSSSNIGNHYVSWYQQLPGTAPKLLIYNTFARPSGIPDRFSGSKSGTSATLGITGLQTGDEADYYCGTWDSSLSALVFGGGTKLTVL
11 |  |  | 8.23 nM | 0.00114 s⁻¹ | 139000 M⁻¹ s⁻¹ | C0021118 Fab (Fab, V domains shown, Human Fab) VH: EVQLLESGGGLVQPGGSLRLSCAASGFTFSSYAMSWVRQAPGKGLEWVSASLTNPGSTYYADSVKGRFTISRDNSKNTLYLQMNSLRAEDTAVYYCARLRADLGLYMDLWGRGTLVTVSS VL: QSVLTQPPSVSAAPGQKVTISCSGSSSNIGNHYVSWYQQLPGTAPKLLIYDNSERPSGIPDRFSGSKSGTSATLGITGLQTGDEADYYCATYDTNLSALVFGGGTKLTVL
12 |  |  | 3.41 nM | 0.00107 s⁻¹ | 314000 M⁻¹ s⁻¹ | C0021101 Fab (Fab, V domains shown, Human Fab) VH: EVQLLESGGGLVQPGGSLRLSCAASGFTFSSYAMSWVRQAPGKGPEWVSAISGFSPYYADSVKGRFTISRDNSKNTLYLQMNSLRAEDTAVYYCARLRADLGLYMDLWGRGTLVTVSS VL: QSVLTQPPSVSAAPGQKVTISCSGSSSNIGNHYVSWYQQLPGTAPKLLIYNNRSPTSGIPDRFSGSKSGTSATLGITGLQTGDEADYYCGTWDSSLSALVFGGGTKLTVL
13 | 27.5 nM | 99.1 nM |  |  |  | C0021097 scFv (scFv, V domains shown, scFv) VH: EVQLLESGGGLVQPGGSLRLSCAASGFTFSSYAMSWVRQAPGKGLEWVSAISYHPGSTYYADSVKGRFTISRDNSKNTLYLQMNSLRAEDTAVYYCARLRADLGLYMDLWGRGTLVTVSS VL: QSVLTQPPSVSAAPGQKVTISCSGSSSNIGNHYVSWYQQLPGTAPKLLIYNTFARPSGIPDRFSGSKSGTSATLGITGLQTGDEADYYCGTWDSSLSALVFGGGTKLTVL
14 | 48.3 nM | 134 nM |  |  |  | C0021098 scFv (scFv, V domains shown, scFv) VH: EVQLLESGGGLVQPGGSLRLSCAASGFTFSSYAMSWVRQAPGKGLEWVSSSTYGAGSTYYADSVKGRFTISRDNSKNTLYLQMNSLRAEDTAVYYCARLRADLGLYMDLWGRGTLVTVSS VL: QSVLTQPPSVSAAPGQKVTISCSGSSSNIGNHYVSWYQQLPGTAPKLLIYNSDAPMSGIPDRFSGSKSGTSATLGITGLQTGDEADYYCGTWDSSLSALVFGGGTKLTVL
15 |  |  | 3.48 nM | 0.00154 s⁻¹ | 441000 M⁻¹ s⁻¹ | C0021096 Fab (Fab, V domains shown, Human Fab) VH: EVQLLESGGGLVQPGGSLRLSCAASGFTFSSYAMSWVRQAPGKGLEWVSAISGYSGYYADSVKGRFTISRDNSKNTLYLQMNSLRAEDTAVYYCARLRADLGLYMDLWGRGTLVTVSS VL: QSVLTQPPSVSAAPGQKVTISCSGSSSNIGNHYVSWYQQLPGTAPKLLIYNTERRMSGIPDRFSGSKSGTSATLGITGLQTGDEADYYCGTWDSSLSALVFGGGTKLTVL
16 |  |  | 2.77 nM | 0.0011 s⁻¹ | 399000 M⁻¹ s⁻¹ | C0021142 Fab (Fab, V domains shown, Human Fab) VH: EVQLLESGGGLVQPGGSLRLSCAASGFTFSSYAMSWVRQAPGKGLEWVSAHTHSPGSTYYADSVKGRFTISRDNSKNTLYLQMNSLRAEDTAVYYCARLRADLGLYMDLWGRGTLVTVSS VL: QSVLTQPPSVSAAPGQKVTISCSGSSSNIGNHYVSWYQQLPGTAPKLLIYDNSERPSGIPDRFSGSKSGTSATLGITGLQTGDEADYYCGTWDSSLSALVFGGGTKLTVL
